In US20200316120A1 (IMMPACT BIO, published 2020):

Target: HLA-A2 (recombinant, on Raji-HLA-A2 target cells) (human)
Experiment: cell-based or functional assay

inhibition of effector T cells expressing the two CARs at a 1:1 ratio (CD107a figure series): 50%
percent inhibition of CD107a expression on CD8 T cells; 100*(1-(CD107a with Raji-A2/CD107a with Raji)), aCAR to iCAR ratio 1:5: 84%
B1: HLA-A2 iCAR (inhibitory chimeric antigen receptor; HLA-A2 scFv from hybridoma BB7.2 fused to PD-1 hinge, transmembrane and intracellular domains) (receptor)
chain: EQKLISEEDLQVQLQQSGPELVKPGASVKMSCKASGYTFTSYHIQWVKQRPGQGLEWIGWIYPGDGSTQYNEKFKGKTTLTADKSSSTAYMLLSSLTSEDSAIYFCAREGTYYAMDYWGQGTSVTVSSGGGGSGGGGSGGGGSDVLMTQTPLSLPVSLGDQVSISCRSSQSIVHSNGNTYLEWYLQKPGQSPKLLIYKVSNRFSGVPDRFSGSGSGTDFTLKISRVEAEDLGVYYCFQGSHVPRTFGGGTKLEIKTERRAEVPTAHPSPSPRPAGQFQTLVVGVVGGLLGSLVLLVWVLAVICSRAARGTIGARRTGQPLKEDPSAVPVFSVDYGELDFQWREKTPEPPVPCVPEQTEYATIVFPSGMGTSSPARRGSADGPRSAQPLRPEDGHCSWPL
